Earlier results in PMC4005919.
pKd: −log10 of the molar value.

Target: BID BH3 (Homo sapiens) (UniProt P55957)
Sequence (P55957 80-99): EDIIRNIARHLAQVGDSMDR

BAK, sequence (Q16611 2-211): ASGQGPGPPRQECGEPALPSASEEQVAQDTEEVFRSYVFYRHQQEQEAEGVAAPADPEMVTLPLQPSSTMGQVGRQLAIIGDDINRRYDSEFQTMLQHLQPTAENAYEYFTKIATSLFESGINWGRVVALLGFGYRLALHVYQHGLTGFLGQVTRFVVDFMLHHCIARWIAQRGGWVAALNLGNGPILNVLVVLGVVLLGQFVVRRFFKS

BAK (from UniProt Q16611)
pKd: 5.00
